Results on 2 molecules are retold here after publication PMC6316570, “G-Protein Coupled Receptor Protein Synthesis on a Lipid Bilayer Using a Reconstituted Cell-Free Protein Synthesis System” (Life, 2018).

Assay [1] has as its target T1, His-tagged CX3CR1 (human, UniProt P49238 1-355).
T1 construct: CX3CR1 (fractalkine receptor), human cDNA; Two templates are described; The pET28a plasmid has an N-terminal 6xHis tag, the linker DYDIPTT and a TEV site; The linear PCR product takes its His-tag from the reverse primer, which would be C-terminal; In the nanodisc assay the receptor sat in a lipid nanodisc (MSP scaffold, POPC/POPS/cholesterol); In the micelle assay it was in detergent; also called …
T1 sequence (looked up): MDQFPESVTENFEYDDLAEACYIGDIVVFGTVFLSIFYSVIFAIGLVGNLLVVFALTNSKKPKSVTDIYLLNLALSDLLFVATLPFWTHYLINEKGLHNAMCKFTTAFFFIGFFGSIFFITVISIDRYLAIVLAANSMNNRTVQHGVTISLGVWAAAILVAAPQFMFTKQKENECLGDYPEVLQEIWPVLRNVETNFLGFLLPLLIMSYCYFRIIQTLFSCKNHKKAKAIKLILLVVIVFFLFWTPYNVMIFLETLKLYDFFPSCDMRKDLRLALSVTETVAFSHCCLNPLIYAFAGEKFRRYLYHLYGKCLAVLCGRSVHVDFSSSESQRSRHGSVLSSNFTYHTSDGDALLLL
Put plainly: SPR; Biacore T200; unpurified PURE-synthesized His-tagged CX3CR1-nanodisc complex captured (~1500 RU) on Penta-His antibody on CM5 chip; purified CX3CL1 injected; HBS-P (10 mM HEPES pH 7.4, 150 mM NaCl, 0.05% P20), 25 °C, 30 µL/min; single cycle kinetics; 1:1 interaction model. On the technique in general: In SPR one partner is held on a chip, and binding of the other changes the refractive index at the surface.

Assay [2] has as its target T1, His-tagged CX3CR1. Kind of assay: SPR; Biacore T200; unpurified PURE-synthesized Strep-tag II CX3CL1 captured (~1000 RU) on StrepMAB-Immo antibody on CM5 chip; purified His-tagged CX3CR1 synthesized with micelles, in detergent, injected; HBS-P, 25 °C, 30 µL/min; single cycle kinetics; 1:1 interaction model. The settings on record: one partner purified.

Broadly, the Kd is the concentration at which binding is half-saturated. A lower Kd goes with a tighter complex. In turn, “recombinant CX3CL1 protein (from UniProt P78423 25-397) (ligand)” yielded a Kd in assay [1] of 27.8 nM.

B1: strep-II-tagged ligand CX3CL1 (ligand, UniProt P78423 25-100, looked up)
chain: QHHGVTKCNITCSKMTSKIPVALLIHYQQNQASCGKRAIILETRQHRLFCADPKEQWVKDAMQHLDRQAAALTRNG
notes: fractalkine (CX3CL1), amplified from pUREstrept2 plasmid; printed size 8.5 kDa; also called fractalkine; CX3CL1-tagged with Strep-tag II; source: PURE system (cell-free), not purified, immobilized directly; not shown: Strep-tag II, N-terminal, kept
B1: in assay [2], binding was put at a Kd of 39.4 nM. That is a double-digit nanomolar value.
